Test results reported in PMC4424342.

biological target: GST-Shp2 SH2 T73D/S189D; assay: pull-down; glutathione-Sepharose bead-bound bacterial GST-Shp2 SH2 proteins incubated with lysates of HEK293T cells transfected with the ligand and constitutively active Src; 1 h at 4 °C; bound proteins immunoblotted for phosphotyrosine (4G10) and GST; band intensities quantified with ImageJ

| fold reduction of binding against the wild-type SH2 domains | Substance |
| --- | --- |
| 2.7 fold | Venus-GAB2, tyrosine-phosphorylated (from UniProt Q9UQC2 1-676) (natural protein) |
| 1.7 fold | GFP-PKD1, tyrosine-phosphorylated (from UniProt Q15139 1-912) (enzyme) |
| 5.7 fold | Venus-GAB1, tyrosine-phosphorylated (from UniProt Q13480 1-694) (natural protein) |
